Results from patent publication US20150368338A1 (Janssen / Centocor, published 2015).

What was measured:
Assay in all cases: ProteOn, one antigen concentration
human IFN-ω = target: T1, human IFN-ω (human, UniProt P05000 24-195)
T1 construct: also called interferon omega
Description: (§1) To increase the assay throughput, only one concentration of the individual antigen was used.

IFN-αJ1 = target: T2, IFN-αJ1 (human, UniProt P01567 24-189)
T2 construct: also called IFN-α7; alpha J1
Description: as §1

IFN-αG = target: T3, IFN-αG (human, UniProt P01569 24-189)
T3 construct: also called IFN-α5; alpha G
Description: as §1

IFN-α4a = target: T4, IFN-α4a (human, UniProt P05014 24-189)
T4 construct: also called IFN-αM1
Description: as §1

IFN-αF = target: T5, IFN-αF (human, UniProt P01568 24-189)
T5 construct: also called IFN-α21; alpha F
T5 chain: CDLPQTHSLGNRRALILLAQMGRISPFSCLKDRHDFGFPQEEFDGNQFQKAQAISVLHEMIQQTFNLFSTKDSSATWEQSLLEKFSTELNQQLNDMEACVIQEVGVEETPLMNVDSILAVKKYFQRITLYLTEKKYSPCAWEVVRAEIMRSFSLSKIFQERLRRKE
Description: as §1

IFN-αWA = target: T6, IFN-αWA (human, UniProt P05015 24-189)
T6 construct: also called IFN-α16; alpha WA
Description: as §1

IFN-αC = target: T7, IFN-αC (human, UniProt P01566 24-189)
T7 construct: also called IFN-α10; alpha C
Description: as §1

Binder | Kd (human IFN-ω) [nM] | Kd (IFN-αJ1) [nM] | Kd (IFN-αG) [nM] | Kd (IFN-α4a) [nM] | Kd (IFN-αF) [nM] | Kd (IFN-αWA) [nM] | Kd (IFN-αC) [nM]
IFWM3322 (antibody, V domains shown, VH IFWH591, VL IFWL1051; converted mAb; also called IFWB3057) VH: EVQLVQSGAEVKKPGESLKISCKGSGYSFTSYWIGWVRQMPGKGLEWMGIIDPSDSDTRYSPSFQGQVTISADKSISTAYLQWSSLKASDTAMYYCARHPGLNWAPDFDYWGQGTLVTVSS VL: DIQMTQSPSSLSASVGDRVTITCRASQSIADFLNWYQQKPGKAPKLLIYFASSLQSGVPSRFSGSGSGTDFTLTISSLQPEDFATYYCQQSHSFPLTFGQGTKVEIK | 0.04 | 0.127 | 0.058 | 0.272 | 0.033 | 0.086 | 0.042
IFWM3343 (antibody, V domains shown, VH IFWH624, VL IFWL997; converted mAb; also called IFWB3078) VH: EVQLVQSGAEVKKPGESLKISCKGSGYSFTSYWIGWVRQMPGKGLEWMGIIDPSDSDTAYSPSFQGQVTISADKSISTAYLQWSSLKASDTAMYYCARHPGLNWAPDFDYWGQGTLVTVSS VL: DIQMTQSPSSLSASVGDRVTITCRASQSIGSALNWYQQKPGKAPKLLIYFASSLQSGVPSRFSGSGSGTDFTLTISSLQPEDFATYYCQQSYDFPLTFGQGTKVEIK | 0.02 | 0.157 | 0.06 | 0.237 | 0.063 | 0.083 | 0.065
IFWM3342 (antibody, V domains shown, VH IFWH624, VL IFWL992; converted mAb; also called IFWB3077) VH: EVQLVQSGAEVKKPGESLKISCKGSGYSFTSYWIGWVRQMPGKGLEWMGIIDPSDSDTAYSPSFQGQVTISADKSISTAYLQWSSLKASDTAMYYCARHPGLNWAPDFDYWGQGTLVTVSS VL: DIQMTQSPSSLSASVGDRVTITCRASQSIGSFLNWYQQKPGKAPKLLIYFASSLQSGVPSRFSGSGSGTDFTLTISSLQPEDFATYYCQQSYSIPITFGQGTKVEIK | 0.068 | 0.269 | 0.014 | 0.589 | 0.164 | 0.095 | 0.142
IFWM3325 (antibody, V domains shown, VH IFWH591, VL IFWL1060; converted mAb; also called IFWB3060) VH: EVQLVQSGAEVKKPGESLKISCKGSGYSFTSYWIGWVRQMPGKGLEWMGIIDPSDSDTRYSPSFQGQVTISADKSISTAYLQWSSLKASDTAMYYCARHPGLNWAPDFDYWGQGTLVTVSS VL: DIQMTQSPSSLSASVGDRVTITCRASQSIRNSLNWYQQKPGKAPKLLIKWASSLQSGVPSRFSGSGSGTDFTLTISSLQPEDFATYYCQQLYDWPLTFGQGTKVEIK | 0.011 | 0.092 | 0.033 | 0.111 | 0.032 | 0.091 | 0.022
IFWM3340 (antibody, V domains shown, VH IFWH624, VL IFWL983; converted mAb; also called IFWB3075) VH: EVQLVQSGAEVKKPGESLKISCKGSGYSFTSYWIGWVRQMPGKGLEWMGIIDPSDSDTAYSPSFQGQVTISADKSISTAYLQWSSLKASDTAMYYCARHPGLNWAPDFDYWGQGTLVTVSS VL: DIQMTQSPSSLSASVGDRVTITCRASQSIDGSLNWYQQKPGKAPKLLIYFASSLQSGVPSRFSGSGSGTDFTLTISSLQPEDFATYYCQQSYDFPLTFGQGTKVEIK | 0.004 | 0.124 | 0.024 | 0.201 | 0.041 | 0.056 | 0.048
IFWM3341 (antibody, V domains shown, VH IFWH624, VL IFWL991; converted mAb; also called IFWB3076) VH: EVQLVQSGAEVKKPGESLKISCKGSGYSFTSYWIGWVRQMPGKGLEWMGIIDPSDSDTAYSPSFQGQVTISADKSISTAYLQWSSLKASDTAMYYCARHPGLNWAPDFDYWGQGTLVTVSS VL: DIQMTQSPSSLSASVGDRVTITCRASQSINRFLNWYQQKPGKAPKLLIYAASSLQSGVPSRFSGSGSGTDFTLTISSLQPEDFATYYCQQAIDLPFTFGQGTKVEIK | 0.008 | 0.275 | 0.063 | 0.445 | 0.088 | 0.134 | 0.104
